Source: US20090202556A1 (Kyowa Kirin, published 2009)
Each block holds one binder with its values, some of them ahead of it.

Key:
[1] = target: T1, CLDN3-myc/His (fusion protein in which myc/His was added to the C-terminal of human CLDN3), expressed in CHO … (human, UniProt O15551 1-220); experiment: FCM on live CLDN3/CHO cells
T1 construct: also called CLDN3-myc/His gene-introduced CHO cell; not shown: C-terminal myc/His tag
T1 sequence: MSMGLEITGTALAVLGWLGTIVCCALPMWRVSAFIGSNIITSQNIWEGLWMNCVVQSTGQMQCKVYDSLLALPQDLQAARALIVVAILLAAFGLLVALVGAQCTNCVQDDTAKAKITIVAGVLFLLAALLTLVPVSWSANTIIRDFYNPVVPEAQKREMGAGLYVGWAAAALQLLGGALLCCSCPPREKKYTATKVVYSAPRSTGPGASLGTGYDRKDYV
Protocol: (§1) Each of CLDN3/CHO, CLDN4/CHO, CLDN5/CHO, CLDN6/CHO and CLDN9/CHO was cultured for 3 to 4 days and peeled off using 0.02% EDTA solution (manufactured by Nacalai Tesque), and the recovered cells were washed with PBS and, in order to avoid nonspecific adsorption of antibodies, blocked at ice temperature for 30 minutes. The cells were dispensed at 1 to 5×10⁵ cells/100 μl BSA-PBS into a 96-well U bottom plate and centrifuged (1,500 rpm, 5 minutes), the supernatant was removed and then a mouse anti-serum to be immunized, a culture supernatant of hybridoma KM3900 (8.6 μg/ml), anti-CLDN4 monoclonal antibodies KM3900 and KM3907 diluted to 5 μg/ml and a mouse IgG2a isotype control (manufactured by DAKO) were dispensed as the primary antibodies at 100 μl/well and allowed to react at ice temperature for 60 minutes. After the reaction and then washing with BSA-PBS once, FITC-labeled anti-mouse immunoglobulin G (H+L) (manufactured by DAKO) diluted 50-fold with BSA-PBS was added thereto as the secondary antibody at 100 μl/well and allowed to react at ice temperature for 30 minutes under shading. After washing again once with BSA-PBS and subsequently suspending in PBS, the fluorescent intensity was measured by FCM (manufactured by Beckman Coulter).

[2] = target: T2, CLDN4-myc/His (fusion protein in which myc/His was added to the C-terminal of human CLDN4), expressed in CHO … (human, UniProt O14493 1-209); experiment: FCM on live CLDN4/CHO cells
T2 construct: On live cells in FCM; as cell extract in Western blotting (denatured) and immunoprecipitation (Triton X-100 lysate); also called CLDN4-myc/His gene-introduced CHO cell
T2 sequence: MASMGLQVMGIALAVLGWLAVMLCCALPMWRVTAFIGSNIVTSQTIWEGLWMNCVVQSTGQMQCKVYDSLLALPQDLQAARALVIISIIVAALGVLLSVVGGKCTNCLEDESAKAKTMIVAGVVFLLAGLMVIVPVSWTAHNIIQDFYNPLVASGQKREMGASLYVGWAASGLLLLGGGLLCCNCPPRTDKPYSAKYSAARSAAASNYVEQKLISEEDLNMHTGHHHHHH
Protocol: as §1

[3] = target: T3, CLDN5-myc/His (fusion protein in which myc/His was added to the C-terminal of human CLDN5), expressed in CHO … (human, UniProt O00501 1-218); experiment: FCM on live CLDN5/CHO cells
T3 sequence: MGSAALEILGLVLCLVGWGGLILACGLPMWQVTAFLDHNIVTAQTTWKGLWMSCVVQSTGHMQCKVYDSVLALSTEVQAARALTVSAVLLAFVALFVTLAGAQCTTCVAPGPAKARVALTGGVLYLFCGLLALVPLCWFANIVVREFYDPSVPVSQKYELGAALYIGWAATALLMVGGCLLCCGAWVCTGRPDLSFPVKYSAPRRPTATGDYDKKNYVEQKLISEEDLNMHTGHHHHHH
Protocol: as §1

[4] = target: T4, CLDN6-myc/His (fusion protein in which myc/His was added to the C-terminal of human CLDN6), expressed in CHO … (human, UniProt P56747 1-220); experiment: FCM on live CLDN6/CHO cells
T4 chain: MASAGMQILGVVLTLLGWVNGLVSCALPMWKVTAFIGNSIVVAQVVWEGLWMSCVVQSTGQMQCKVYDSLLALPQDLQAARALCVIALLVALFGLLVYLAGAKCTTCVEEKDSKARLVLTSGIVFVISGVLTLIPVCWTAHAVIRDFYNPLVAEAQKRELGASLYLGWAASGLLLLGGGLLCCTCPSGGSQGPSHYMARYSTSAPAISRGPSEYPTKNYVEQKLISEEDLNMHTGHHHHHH
Protocol: as §1

[5] = target: T5, 4-EL1/6-EL2 (CLDN4-CLDN6 fusion protein: EL1 of CLDN4, EL2 of CLDN6, myc/His at the C-terminal side), … (human); experiment: FCM on live 4-EL1/6-EL2/CHO cells
T5 chain: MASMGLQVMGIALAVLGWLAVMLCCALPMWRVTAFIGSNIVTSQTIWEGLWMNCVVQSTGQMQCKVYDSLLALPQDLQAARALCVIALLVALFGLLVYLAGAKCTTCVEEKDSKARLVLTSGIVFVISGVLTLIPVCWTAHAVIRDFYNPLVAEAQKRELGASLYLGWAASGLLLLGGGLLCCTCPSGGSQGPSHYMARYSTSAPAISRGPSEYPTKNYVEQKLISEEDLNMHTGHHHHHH

[6] = target: T6, CLDN9-myc/His (fusion protein in which myc/His was added to the C-terminal of human CLDN9), expressed in CHO … (human, UniProt O95484 1-217); experiment: FCM on live CLDN9/CHO cells
T6 sequence: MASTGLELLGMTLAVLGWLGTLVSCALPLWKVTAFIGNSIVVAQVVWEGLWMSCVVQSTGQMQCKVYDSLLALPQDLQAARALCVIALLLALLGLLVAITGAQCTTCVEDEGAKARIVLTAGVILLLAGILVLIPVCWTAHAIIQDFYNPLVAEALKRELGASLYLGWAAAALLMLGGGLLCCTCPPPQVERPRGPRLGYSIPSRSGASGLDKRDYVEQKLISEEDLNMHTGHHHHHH
Protocol: as §1

[7] = target: T7, 6-EL1/4-EL2 (CLDN4-CLDN6 fusion protein: EL1 of CLDN6, EL2 of CLDN4, myc/His at the C-terminal side), … (human); experiment: FCM on live 6-EL1/4-EL2/CHO cells
T7 chain: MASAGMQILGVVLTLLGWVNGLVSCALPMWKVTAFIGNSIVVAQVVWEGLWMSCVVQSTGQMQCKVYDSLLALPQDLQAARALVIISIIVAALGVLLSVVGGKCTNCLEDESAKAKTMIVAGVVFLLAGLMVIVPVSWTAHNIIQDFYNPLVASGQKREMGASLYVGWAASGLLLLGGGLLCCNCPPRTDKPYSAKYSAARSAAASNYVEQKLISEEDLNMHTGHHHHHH

binding result [1]: binds | binding result [2]: binds | binding result [3]: no binding (tested: 5 µg/ml) | binding result [4]: no binding (tested: 5 µg/ml) | binding result [5]: binds | binding result [6]: no binding (tested: 5 µg/ml) | binding result [7]: no binding
B1: anti-CLDN4 monoclonal antibody KM3907 produced by hybridoma KM3907 (FERM BP-10885) (antibody, mouse IgG2a, V domains shown)
VH: QVQLQQSGPELVKPGASVKISCKASGYAISTSWMNWVKQRPGKGLEWIGRINPGDGNTNYNGKFMAKATLTADKPSSTAYMQLSSLTSEDSAVYFCTRGDRWSGAMDYWGQGTSVTVSS
VL: GNVLTQSPAIMSASPGEKVTMTCRASSSVSSSYLHWYQQKSGASPKLWIYSTSNLASGVPVRFSGSGSGTSYSLTISSVEAEDAATYYCQQYSGFPLTFGAGTKLELK

binding result [1]: no binding (tested: 5 µg/ml) | binding result [2]: binds | binding result [3]: no binding (tested: 5 µg/ml) | binding result [4]: no binding (tested: 5 µg/ml) | binding result [5]: no binding | binding result [6]: no binding (tested: 5 µg/ml) | binding result [7]: binds
B2: anti-CLDN4 monoclonal antibody KM3900 produced by hybridoma KM3900 (FERM BP-10751) (antibody, V domains shown)
VH: EVQLQQSGPELVKPGASVKISCKASGYTFTDYYMNWVKQSHGKSLEWIGDVVPNNGVPTYNQKFKGKATLTVDKSSSTAYMELRSLTSEDSAVYYCARPHYYYAGRSGAMDYWGQGTSVTVSS
VL: QIVLTQSPAIMSASLGERVTMTCTASSTVSSTYLHWYQQKPGSSPKLWIYSTSNLASGVPARFSGSGSGTSYSLTISSMEAEDAATYYCHQYHRSPPTFGGGTKLEIK
notes: Used as hybridoma culture supernatant (8.6 µg/ml) or purified antibody (5 µg/ml); also called anti-CLDN4 mouse antibody KM3900
